From paper PMC5437307 (2017)
Where “and” joins values, the source holds several entries; their conditions need not be identical. Equal entries are not always repeated. Each block holds one molecule with its values, some of them ahead of it.

Tests used:
[1] = biological target: IL-2Rβγc (Homo sapiens) (UniProt P14784); settings: cited from earlier work
[2] = biological target: T1, F42A mutant (IL-2-Fc format) (human, UniProt P60568 21-153, F42A); test: SPR
[3] = biological target: T1, F42A mutant (IL-2-Fc format); test: SPR; remark: listed apart in the source

IL-2Rβγc (Homo sapiens), sequence (P14784 27-240, chain 1 of 2): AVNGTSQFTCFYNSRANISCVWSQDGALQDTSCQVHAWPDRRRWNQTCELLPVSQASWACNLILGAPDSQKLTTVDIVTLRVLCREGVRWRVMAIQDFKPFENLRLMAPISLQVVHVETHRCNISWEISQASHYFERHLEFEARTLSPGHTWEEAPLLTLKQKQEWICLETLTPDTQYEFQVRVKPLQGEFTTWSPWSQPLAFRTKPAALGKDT
IL-2Rβγc (Homo sapiens), sequence (P31785 23-262, chain 2 of 2, further chain): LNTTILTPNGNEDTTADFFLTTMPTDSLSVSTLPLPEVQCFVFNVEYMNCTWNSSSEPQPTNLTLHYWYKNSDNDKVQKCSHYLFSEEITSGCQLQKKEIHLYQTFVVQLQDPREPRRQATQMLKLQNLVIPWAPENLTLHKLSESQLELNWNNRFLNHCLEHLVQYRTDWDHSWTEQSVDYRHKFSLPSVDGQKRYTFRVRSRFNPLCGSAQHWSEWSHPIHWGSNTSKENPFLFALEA

Molecule: IL-2 (from UniProt P60568)
Kd [1]: 1 nM

koff [2]: 0.325 s⁻¹ | Kd [3]: 1080 nM and 1100 nM
B1: hCD25-His (receptor)
chain: ELCDDDPPEIPHATFKAMAYKEGTMLNCECKRGFRRIKSGSLYMLCTGNSSHSSWDNQCQCTSSATRNTTKQVTPQPEEQKERKTTEMQSPMQPVDQASLPGHCREPPPWENEATERIYHFVVGQMVYYQCVQGYRALHRGPAESVCKMTHGKTRWTQPQLICTGEMETSQFPGEEKPQASPEGRPESETSCLVTTTDFQIQTEMAATMETSIFTTEYQ
